Patent US20090226372A1 (SANFORD BURNHAM MEDICAL RESEARCH INSTITUTE, published 2009)

Legend:
[1] = target: T1, triple mutant S346A-E348A-T349A NRP-1 expressed on transiently transfected M21 melanoma cells (UniProt O14786 22-923, limits assumed); experiment: phage binding to transiently transfected M21 melanoma cells, titration
T1 construct: whole, on cells; The stated codon change SKET to AKAA gives T349A; also called Mutant NRP-1

[2] = target: T2, wild-type NRP-1 expressed on transiently transfected M21 melanoma cells (UniProt O14786 22-923); experiment: phage incubated with M21 cells transiently transfected with NRP-1, immunostaining and confocal imaging
T2 construct: whole, on cells; the printed SKET at 346-349 fits human NRP-1; also called wild type NRP-1 cDNA in pcDNA3.1(+)
T2 sequence (O14786 22-923 limits assumed): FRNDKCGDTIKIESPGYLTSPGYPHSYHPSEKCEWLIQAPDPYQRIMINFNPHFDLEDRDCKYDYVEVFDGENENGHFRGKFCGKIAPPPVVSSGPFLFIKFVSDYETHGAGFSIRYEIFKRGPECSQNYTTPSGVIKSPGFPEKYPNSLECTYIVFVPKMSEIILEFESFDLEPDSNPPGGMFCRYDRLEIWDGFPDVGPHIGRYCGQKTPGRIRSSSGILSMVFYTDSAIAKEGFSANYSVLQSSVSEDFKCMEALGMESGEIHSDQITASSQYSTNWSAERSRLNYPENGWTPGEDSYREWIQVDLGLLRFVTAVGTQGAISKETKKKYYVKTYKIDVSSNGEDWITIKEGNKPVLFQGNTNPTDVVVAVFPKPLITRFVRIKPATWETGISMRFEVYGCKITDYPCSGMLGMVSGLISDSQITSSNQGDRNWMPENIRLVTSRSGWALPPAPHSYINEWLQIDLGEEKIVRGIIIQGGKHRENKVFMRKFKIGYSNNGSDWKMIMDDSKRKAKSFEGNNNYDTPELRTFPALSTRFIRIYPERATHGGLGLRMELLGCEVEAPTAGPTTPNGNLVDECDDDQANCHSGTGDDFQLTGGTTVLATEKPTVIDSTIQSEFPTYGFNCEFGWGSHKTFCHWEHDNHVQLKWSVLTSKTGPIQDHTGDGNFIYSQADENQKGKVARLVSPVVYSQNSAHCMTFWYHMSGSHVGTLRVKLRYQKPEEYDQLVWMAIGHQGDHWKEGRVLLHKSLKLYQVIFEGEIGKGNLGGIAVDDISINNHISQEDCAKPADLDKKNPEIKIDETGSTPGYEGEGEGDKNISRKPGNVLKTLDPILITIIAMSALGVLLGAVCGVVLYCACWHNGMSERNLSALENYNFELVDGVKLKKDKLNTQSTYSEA

Row | Binder | binding result [1] | binding result [2]
1 | RPARPAR (also called RPARPAR phage; RPARPAR T7; not shown: T7 bacteriophage major coat protein gp10 (T7-select display system); Limits) [T7 phage displaying RPARPAR (SEQ ID NO:2)] | no binding | –
2 | RPARPARA (not shown: T7 bacteriophage major coat protein gp10 (T7-select display system); Limits) [T7 phage displaying RPARPARA (SEQ ID NO:3)] | – | no binding
